Measurements published in the supplement of paper PMC12042874.
± gives the uncertainty stated by the source.

test: amyloid nucleation score (Sup35N fusion, yeast selection) (log enrichment); library NNK2; higher = more nucleation; inactive = no reads after selection
How it was run: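 DiMSum was used to calculate nucleation scores as log enrichment of output over input reads, centred on the mode score of non-aggregating sequences. Sequences with fewer than 100 input reads were not scored. Input and output came from Illumina sequencing of plasmid inserts in psi-negative yeast expressing peptides of 20 random codons fused to Sup35N, induced 24 hours with 100 μM copper sulfate and then grown 7 days at 30°C on medium lacking adenine and uracil.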

Which amyloid nucleation score does the source give for SFLWLSMFVESAQVVNLQLY here?
The amyloid nucleation score was 5.485 ± 0.038.

For SFPAGICPLMRLVYVNMGVG, which amyloid nucleation score is on record?
Its amyloid nucleation score is -0.683 ± 1.1.

With SFPDSSRSKWIS as the substance, how does the amyloid nucleation score read?
Its amyloid nucleation score is -0.775 ± 0.45.

Which amyloid nucleation score does the source give for SFPYNHFYMDYMPVRAPLVV here?
Its amyloid nucleation score is -0.153 ± 1.1.

Which amyloid nucleation score does the source give for SFRFGEKDCWLDCCRVMRKK here?
The amyloid nucleation score was 5.59 ± 0.068.

For SFRQIATLYEKMFNDNGNGI, which amyloid nucleation score is on record?
The amyloid nucleation score was -0.528 ± 0.37.

With SFRRSPELSQEFTRGYDSYR as the substance, how does the amyloid nucleation score read?
The amyloid nucleation score was -0.276 ± 0.76.

For SFRTAHSAPEVGMLEVYMNL, which amyloid nucleation score is on record?
The amyloid nucleation score was 0.334 ± 0.5.

With SFVMYRNSGRVCGMRVASEW as the substance, how does the amyloid nucleation score read?
Its amyloid nucleation score is 0.766 ± 0.22.

With SFYVIRVGSLPFRS as the substance, how does the amyloid nucleation score read?
Its amyloid nucleation score is 3.25 ± 0.075.

Which amyloid nucleation score does the source give for SGCASSSDTFDRSLCCEYTL here?
The amyloid nucleation score was 0.295 ± 1.

Which amyloid nucleation score does the source give for SGDHDGHEMRILRWSMLRYG here?
Its amyloid nucleation score is 1.56 ± 0.11.

With SGERRTGCPEAAS as the substance, how does the amyloid nucleation score read?
The amyloid nucleation score was 0.075 ± 0.34.

Which amyloid nucleation score does the source give for SGFCQGGNSSRYMSII here?
Its amyloid nucleation score is 1.9 ± 0.27.

For SGFGGLEGFIRPSYSLLAGW, which amyloid nucleation score is on record?
Its amyloid nucleation score is -0.424 ± 0.48.

Which amyloid nucleation score does the source give for SGFNGFSLNHFQNQFKTPRS here?
The amyloid nucleation score was -0.356 ± 1.1.

For SGFVIWRRQHFEFQEVRSS, which amyloid nucleation score is on record?
The amyloid nucleation score was -0.515 ± 1.1.

With SGGLSR as the substance, how does the amyloid nucleation score read?
The amyloid nucleation score was -0.728 ± 0.79.

With SGIMRIE as the substance, how does the amyloid nucleation score read?
Its amyloid nucleation score is “inactive”.

With SGIRDTLVSWGPRGMG as the substance, how does the amyloid nucleation score read?
The amyloid nucleation score was -0.309 ± 0.45.

For SGNGTVRSEYTRYCCLKGEM, which amyloid nucleation score is on record?
Its amyloid nucleation score is 0.822 ± 0.3.

For SGQKFN, which amyloid nucleation score is on record?
Its amyloid nucleation score is 0.015 ± 0.76.

For SGQYKENYGGFHHMLVRWRC, which amyloid nucleation score is on record?
Its amyloid nucleation score is -0.042 ± 0.27.

For SGSALLIEFRYSTSFREKRI, which amyloid nucleation score is on record?
Its amyloid nucleation score is 5.687 ± 0.046.

With SGSHVYFKSCTGLKLPIVLG as the substance, how does the amyloid nucleation score read?
Its amyloid nucleation score is 4.498 ± 0.04.

For SGSLSINDNSCYGENTNTVL, which amyloid nucleation score is on record?
The amyloid nucleation score was -1.21 ± 1.1.

For SGTDHNRMYF, which amyloid nucleation score is on record?
Its amyloid nucleation score is 0.312 ± 0.57.

For SHFCN, which amyloid nucleation score is on record?
Its amyloid nucleation score is 0.859 ± 0.43.

With SHGFFMAVEGLNCVRFVIIL as the substance, how does the amyloid nucleation score read?
Its amyloid nucleation score is “inactive”.

For SHHHSQTRKIDPSTDFSQSS, which amyloid nucleation score is on record?
Its amyloid nucleation score is -0.047 ± 1.1.

Which amyloid nucleation score does the source give for SHIDMFAQECYLCFANVHRR here?
Its amyloid nucleation score is 2.78 ± 0.21.

Which amyloid nucleation score does the source give for SHLALTY here?
Its amyloid nucleation score is 0.14 ± 0.25.

With SHLCHLGGSRRTQRVVEVSS as the substance, how does the amyloid nucleation score read?
Its amyloid nucleation score is 5.72 ± 0.064.

With SHMSHYRNSSTDFAA as the substance, how does the amyloid nucleation score read?
Its amyloid nucleation score is -0.745 ± 0.42.

With SHRMTSNNTNSNLLGRKTGS as the substance, how does the amyloid nucleation score read?
The amyloid nucleation score was -0.139 ± 0.19.

With SHTDYHRFAWMF as the substance, how does the amyloid nucleation score read?
The amyloid nucleation score was -1.74 ± 0.53.

With SHTSCGMKVSLRICHSMGQR as the substance, how does the amyloid nucleation score read?
Its amyloid nucleation score is 6.434 ± 0.057.

For SHWCIVYKGLRNVIVC, which amyloid nucleation score is on record?
The amyloid nucleation score was “inactive”.

For SHWEMRQVGSVVVGIKGKGN, which amyloid nucleation score is on record?
The amyloid nucleation score was 0.972 ± 0.67.

For SICYFCLFLNIIDSDSIFAV, which amyloid nucleation score is on record?
The amyloid nucleation score was 5.87 ± 0.059.

Which amyloid nucleation score does the source give for SIFNFKATFGNSSRDVMSDD here?
The amyloid nucleation score was 3.28 ± 0.057.

With SIGFPSMSMRSWILFTSLYR as the substance, how does the amyloid nucleation score read?
Its amyloid nucleation score is 0.004 ± 0.8.

With SIGPQRHLPYLLVFVYWTLS as the substance, how does the amyloid nucleation score read?
The amyloid nucleation score was 0.309 ± 0.8.

With SIGWRPPCLVFDVGWRREGQ as the substance, how does the amyloid nucleation score read?
The amyloid nucleation score was -0.109 ± 0.42.

With SIIGVYLCFLSFRTNVLWKT as the substance, how does the amyloid nucleation score read?
The amyloid nucleation score was -0.122 ± 0.27.

Which amyloid nucleation score does the source give for SILGSSRTCILSSWWNVGTL here?
Its amyloid nucleation score is -0.091 ± 0.8.

With SIMGRIKIAIHVLRS as the substance, how does the amyloid nucleation score read?
The amyloid nucleation score was 4.12 ± 0.091.

Which amyloid nucleation score does the source give for SIRIKRLSNLQSRNPVRPRV here?
The amyloid nucleation score was -0.578 ± 1.1.

Which amyloid nucleation score does the source give for SIRRCPVKFINKRLVVYLKV here?
Its amyloid nucleation score is -0.88 ± 0.55.

Which amyloid nucleation score does the source give for SISLEIHTAGTGKSRLPFYS here?
Its amyloid nucleation score is 5.67 ± 0.073.

Which amyloid nucleation score does the source give for SISRISPTQGIIGQTRFFYV here?
Its amyloid nucleation score is -1.14 ± 0.76.

With SISSGMVDVAGQLSCTRVSE as the substance, how does the amyloid nucleation score read?
Its amyloid nucleation score is 1.65 ± 0.32.

For SITYTNLMNTLQAIRTSFLA, which amyloid nucleation score is on record?
The amyloid nucleation score was -0.708 ± 1.1.

For SIVNFWNMIVE, which amyloid nucleation score is on record?
The amyloid nucleation score was 3.32 ± 0.15.

For SIWYSNYNNSRKIPSAYKKW, which amyloid nucleation score is on record?
The amyloid nucleation score was 2.34 ± 0.071.

For SKFLM, which amyloid nucleation score is on record?
The amyloid nucleation score was -1.14 ± 0.48.

For SKFWVARRCFASHLK, which amyloid nucleation score is on record?
The amyloid nucleation score was -0.272 ± 1.1.

Which amyloid nucleation score does the source give for SKGGCTEFIEKTWNLCSCLV here?
Its amyloid nucleation score is -1.1 ± 0.78.

With SKKTIVFGGTIRTTALPGPG as the substance, how does the amyloid nucleation score read?
Its amyloid nucleation score is -0.592 ± 0.76.

For SKLRFAIIFAKHVS, which amyloid nucleation score is on record?
The amyloid nucleation score was -0.322 ± 0.41.

Which amyloid nucleation score does the source give for SKLTRSIENLLF here?
Its amyloid nucleation score is 0.949 ± 0.15.

Which amyloid nucleation score does the source give for SKMCCDMYISISCIIWSARR here?
The amyloid nucleation score was 0.352 ± 0.32.

Which amyloid nucleation score does the source give for SKMWTIRYFSLVRCLHGLLN here?
The amyloid nucleation score was -0.985 ± 0.45.

With SKMYMPAVWMDGPSPQTTMW as the substance, how does the amyloid nucleation score read?
The amyloid nucleation score was 0.73 ± 0.37.

With SKSEIHCYLMMGRHLFG as the substance, how does the amyloid nucleation score read?
Its amyloid nucleation score is 4.5 ± 0.11.

Which amyloid nucleation score does the source give for SKVLKRACYGAAGPFRIVHV here?
Its amyloid nucleation score is 3.29 ± 0.082.

For SKVLNGFYIWYHQVPQLYPL, which amyloid nucleation score is on record?
Its amyloid nucleation score is -1.19 ± 1.

For SLCLLIALSRWSIAS, which amyloid nucleation score is on record?
Its amyloid nucleation score is 1.14 ± 0.3.

Which amyloid nucleation score does the source give for SLDGISHHSTDVNLVLNCYR here?
Its amyloid nucleation score is 5.222 ± 0.045.
